This note sets out measurements from the supplement of paper PMC9170038.

The subject of the data set is MS2 coat protein. Nature of the data set: apparent KD of MS2 coat protein; higher = weaker reporter binding. Particulars: Eterna round: R107. In a few lines:
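Each design's apparent KD comes from the median of binding-curve fits to its normalised clusters. Those clusters carried RNA switches transcribed on-chip from Illumina sequencing clusters. SNAP-549-labelled MS2 coat protein was titrated onto them in twofold steps (0.7 or 1.5 nM to 3 µM; per step 0.8–1.5 h down to 10–20 min). Conditions were 100 mM Tris-HCl pH 7.5, 80 mM KCl, 4 mM MgCl2, without or with constant ligand.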

The mark [1] stands for this setting: input ligand: theophylline 20 uM.
Setting [2] is: input ligand: theophylline 2 mM.
[3] abbreviates: input ligand: tryptophan 2.4 mM.

For “GGCCCUGCGGGCGCCCGCAGGGCCGCGGAUACCAGCGAGGUCCAUCGCCCUUGGCAGCCGAACAUGAGGAUCACCCAUGUCGGUG [Same State - Theophylline A Attempt #8 (HarryS)]”, the “apparent KD of MS2 coat protein” value is, setting by setting: (input ligand: arginine 13.2 mM) 0.0106 µM; (input ligand: none) 0.0129 µM; under setting [1], 0.0204 µM; under setting [2], 0.0896 µM; under setting [3], 0.0129 µM.

On to “GGCCGAUGGUGCGAUACCAGCUUGAGUGUACUGGCCAGGUACAUGAGGAUCACCCAUGUAAGCCCUUGGCAGCGCGUCAGAGGCC [#1 Exclusion - Theophylline B Attempt #21 (HarryS)]”, for which the “apparent KD of MS2 coat protein” value worked out at 0.0155 µM under setting [1] and 0.0113 µM under setting [3].

“GGCGCGCGCCAACAUGAGGAUCACCCAUGUCGAGGACCGGUACGGCCGCCACUCGAACGAGUGAAGCGCGCGCGCGGGCGACCGC [Saa]”: the “apparent KD of MS2 coat protein” value by setting is: (input ligand: arginine 13.2 mM) 0.0366 µM; (input ligand: none) 0.0397 µM; under setting [1], 0.0425 µM; under setting [2], 0.0471 µM; under setting [3], 0.0771 µM.

For the sequence “GGCGUCGGGCGAAGGAGCGUGAAGACAUGAGGAUCACCCAUGUAGAGGCCCGGACAGGGUUCGCAGGUAGGUCGCGCGCGGUGCC [#1 Same State - Arginine B Attempt #7 (HarryS)]”, the “apparent KD of MS2 coat protein” value stood at 0.0175 µM (input ligand: arginine 13.2 mM); 0.0137 µM (input ligand: none); 0.0232 µM under setting [1]; 0.0195 µM under setting [2]; 0.0169 µM under setting [3].

Turning to “GGCUGCGAUGGCGGAAAUUAUUUACAUAGGCGAGGACCGGUACGGCCGCCACUCGAACGUACAUGAGGAUCACCCAUGUGAUAAU [theeternabot_sameState_MS2_Trp_A_1]”, the “apparent KD of MS2 coat protein” value reads like this: (input ligand: arginine 13.2 mM) 0.029 µM; under setting [1], 0.0599 µM; under setting [2], 0.0708 µM.

Regarding “GGGACUAGAUCGGCCGCCACUGAUGGGACAUGAGGAUCACCCAUGUACGAAGUGAUCCAAUAAAUCAGGACCGGGAUCACUUGUA [Tryp B Ex t6]”, the “apparent KD of MS2 coat protein” value is 0.0643 µM (input ligand: arginine 13.2 mM), 0.137 µM under setting [1] and 0.173 µM under setting [2].

As for “GGGCCCGUAAGCAGGCCCACAGCGGGUGAUACCAGCAAUAAAACUUGCCCUUGGCAGCACACAGCUACAUGAGGAUCACCCAUGU [Mausdi]”, the “apparent KD of MS2 coat protein” value runs as follows: (input ligand: arginine 13.2 mM) 0.0243 µM; under setting [1], 0.0593 µM; under setting [3], 0.0886 µM.

As to “GGGCCUGUAAGCAGACCCACAGCGGGUGAUACCAGCAAUAAAACUUGCCCUUGGCAGCACACAGCUACAUGAGGAUCACCCAUGU [Rausis]”, the “apparent KD of MS2 coat protein” value by setting is: (input ligand: arginine 13.2 mM) 0.0364 µM; under setting [1], 0.0929 µM; under setting [3], 0.0824 µM.

On to “GGGCGAGUGGCGCGGCGUGCUCCGCUCCGUCGAGGACCGGUACGGCCGCCACUCGACAUGAGGAUCACCCAUGUGCGAGCUCGCG [#1 Exclusion - Tryptophan A Attempt #12 (HarryS)]”, for which the “apparent KD of MS2 coat protein” value came out at 0.0247 µM (input ligand: arginine 13.2 mM); 0.0525 µM (input ligand: none); 0.0717 µM under setting [1]; 0.101 µM under setting [2]; 0.0398 µM under setting [3].

Turning to “GGGUACAUCGCGGCCGCCACUCAUGUAAAUACCUGAGGAUCACCCUGGUCGAUGGAGACAUCGAAGAGGACCGGGUGAUGUACCG”, the “apparent KD of MS2 coat protein” value was 0.0912 µM (input ligand: arginine 13.2 mM); 0.252 µM (input ligand: none); 0.371 µM under setting [1]; 0.528 µM under setting [2]; 0.0446 µM under setting [3].

Consider “GGGUGGUAGGCGGCCGCCACUGAUUUUCAUAUAUAUAUAACAUGAGGAUCACCCAUGUAGAUAUGCAGGACCGGGCCUGUUGUUU [aaaL]”, for which the “apparent KD of MS2 coat protein” value came out at 0.0266 µM (input ligand: arginine 13.2 mM), 0.0396 µM under setting [1] and 0.0377 µM under setting [2].

Consider “GGUCUCUGGAGCGAUACCAGCUUAAUUGUACUGGCCAGGUACAUGAGGAUCACCCAUGUAAGCCCUUGGCAGCGCUCCAGAGACC [#1 Exclusion - Theophylline B Attempt #12 (HarryS)]”, for which the “apparent KD of MS2 coat protein” value (input ligand: arginine 13.2 mM) amounted to 0.0106 µM; the “apparent KD of MS2 coat protein” value (input ligand: none) turned out to be 0.0121 µM; the “apparent KD of MS2 coat protein” value under setting [1] is 0.0136 µM; the “apparent KD of MS2 coat protein” value under setting [2] was 0.024 µM; the “apparent KD of MS2 coat protein” value under setting [3] was determined as 0.0116 µM.

In the case of “GGUGAUCCGUGCUGCCGGAUCAUCGGUGAUACCAGCAUCGAAAGAUGCCCUUGGCAGCACCAACAUGAGGAUCACCCAUGUAAUA [(M)'-(T)'-(M)''-(T1)-(T2)-(M1)-(M2)_Design5]”, the “apparent KD of MS2 coat protein” value is, setting by setting: (input ligand: arginine 13.2 mM) 0.046 µM; under setting [1], 0.231 µM; under setting [3], 0.163 µM.

Regarding “GGUGGAGGCGUGGGACUUGUCUGAACGGAUACCAGCCACAUCACGGGCCCUUGGCAGCUGUACAUGAGGAUCACCCAUGUCGGUC [Atestevete]”, the “apparent KD of MS2 coat protein” value (input ligand: arginine 13.2 mM) stood at 0.0336 µM, the “apparent KD of MS2 coat protein” value under setting [1] was 0.0452 µM and the “apparent KD of MS2 coat protein” value under setting [3] amounted to 0.0348 µM.

On to “GGUGGCGGGACUGAUACCAGCCACCACCGAUAGACCACAUGAGGAUCACCCAUGUUGGGUGGCCCUUGGCAGCAGUCUUGCUGCC [#1 Same State - Theophylline B Attempt #12 (HarryS)]”, for which the “apparent KD of MS2 coat protein” value runs as follows: (input ligand: arginine 13.2 mM) 0.0242 µM; (input ligand: none) 0.206 µM; under setting [1], 0.432 µM; under setting [2], 1.88 µM; under setting [3], 0.907 µM.

With “GGUGGCGUGACGGAUACCAGCCACCGCGGCAACGCAACAUGAGGAUCACCCAUGUUGGGUGGCCCUUGGCAGCUGUCGUGCGGCG [#1 Same State - Theophylline B Attempt #23 (HarryS)]”, the “apparent KD of MS2 coat protein” value was found to be 0.0474 µM (input ligand: arginine 13.2 mM); 0.0862 µM (input ligand: none); 0.0793 µM under setting [1]; 0.0275 µM under setting [2]; 0.0781 µM under setting [3].

Consider “GGUUACUCUACGGCCGCCACUGAAAAGUAAAUAUUAAUGUACAUGACAUGAGGAUCACCCAUGUACAGGACCGGGUAGUGUAACC [Tryptophan B 13]”, for which the “apparent KD of MS2 coat protein” value by setting is: (input ligand: arginine 13.2 mM) 0.0648 µM; under setting [1], 0.102 µM; under setting [2], 0.108 µM.

In the case of “GGUUGGUGUAGAGAUAUAUUGAUUACUGAAGGAGCGGGAAUAAACCCAGGUAGGUCGCAGAGAUCCACAUGAGGAUCACCCAUGU [!0.O]”, the “apparent KD of MS2 coat protein” value reads like this: (input ligand: arginine 13.2 mM) 0.032 µM; (input ligand: none) 0.0369 µM; under setting [1], 0.0546 µM; under setting [2], 0.053 µM; under setting [3], 0.0353 µM.

Consider “GUAAGAGUAGGAAGGAGCGCUUUACAUGAGGAUCACCCAUGUGUGCCCUCAAUUUCGGUAAAGCAGGUAGGUCGCCUAAACUUGC [Tiqurabi]”, for which the “apparent KD of MS2 coat protein” value (input ligand: arginine 13.2 mM) turned out to be 0.0312 µM; the “apparent KD of MS2 coat protein” value (input ligand: none) was 0.0345 µM; the “apparent KD of MS2 coat protein” value under setting [1] came to 0.175 µM; the “apparent KD of MS2 coat protein” value under setting [2] was found to be 0.0675 µM; the “apparent KD of MS2 coat protein” value under setting [3] was 0.057 µM.

As to “GUACGAGUUGACUGUGAGACUGGCGUGGAAGGAGCGCACGGAGGUGCAGGUAGGUCGCCACAUGAGGAUCACCCAUGUCGGGCCG [Qutigeveat]”, the “apparent KD of MS2 coat protein” value (input ligand: arginine 13.2 mM) worked out at 0.0193 µM; the “apparent KD of MS2 coat protein” value (input ligand: none) came out at 0.0264 µM; the “apparent KD of MS2 coat protein” value under setting [1] was found to be 0.0316 µM; the “apparent KD of MS2 coat protein” value under setting [2] was 0.0401 µM; the “apparent KD of MS2 coat protein” value under setting [3] amounted to 0.0267 µM.

“GUAGCUAUCGCGGCCGCCACUAAACCGGAAACGGAACAGGAGGAUCACCCUUGUGGCGAAAGCCAUAGGACCGGGCGAUAGCUAC [TryBS - Double Magnet system]”: the “apparent KD of MS2 coat protein” value is 0.224 µM (input ligand: arginine 13.2 mM), 0.457 µM under setting [1], 0.735 µM under setting [2] and 0.0463 µM under setting [3].

Turning to “GUCAGUUCUCAUGAUACCAGACCUGCCUCGGACAUGAGGAUCACCCAUGUACCCAAGCGAGUCCCUUGGCAGCAUGUGGCUUAAA [Ririatre]”, the “apparent KD of MS2 coat protein” value by setting is: (input ligand: arginine 13.2 mM) 0.0247 µM; under setting [1], 0.0194 µM; under setting [3], 0.0207 µM.

Turning to “GUGACUUACGGGCGCCAUUUGUAAUAGGAAGGAGCGGCGAAAUAGCCAGGUAGGUCGCCUAUACAUGAGGAUCACCCAUGUCACC [Esatbileor]”, the “apparent KD of MS2 coat protein” value (input ligand: arginine 13.2 mM) is 0.0469 µM; the “apparent KD of MS2 coat protein” value (input ligand: none) came to 0.0919 µM; the “apparent KD of MS2 coat protein” value under setting [1] turned out to be 0.105 µM; the “apparent KD of MS2 coat protein” value under setting [2] was 0.105 µM; the “apparent KD of MS2 coat protein” value under setting [3] came out at 0.0778 µM.

As for “GUGUCCUAGUCGGCCGCCACUGGUACGAAUACCUUCACCCGUGUGCACAUGAGGAUCACCCAUGUCAGGACCGGGACUAGGGUGU [SSTryp B #24]”, the “apparent KD of MS2 coat protein” value reads like this: (input ligand: arginine 13.2 mM) 0.00987 µM; (input ligand: none) 0.01 µM; under setting [1], 0.0114 µM; under setting [2], 0.0141 µM; under setting [3], 0.00972 µM.

As to “GUGUGGAGCUCGGCCGCCACUCAAACAUGAGGAUCACCCAUGUAAAACAUGAGGAUCACCCAUGUGAGGACCGGGAGAAACACGA [Exclusion Tryptophan B GF8]”, the “apparent KD of MS2 coat protein” value reads like this: (input ligand: arginine 13.2 mM) 0.179 µM; under setting [1], 0.329 µM; under setting [2], 0.408 µM.

As to “GUUAAUAGAAAACUAUUAACAGUGGGUGAACGAGGACCGGUACGGCCGCCACUCGGACAUGAGGAUCACCCAUGUCCAUGUGAAA [AstrosExyTryA#5]”, the “apparent KD of MS2 coat protein” value worked out at 0.0186 µM (input ligand: arginine 13.2 mM); 0.0169 µM (input ligand: none); 0.0169 µM under setting [1]; 0.0156 µM under setting [2]; 0.0354 µM under setting [3].

On to “GUUACCAUGUCGGCCGCCACUAACAAGGUUAUGGCAAGUCUACACGACAUGAGGAUCACCCAUGUUAGGACCGGGACCCAUACCC [theeternabot_exclusion_MS2_Trp_B_44]”, for which the “apparent KD of MS2 coat protein” value is, setting by setting: (input ligand: arginine 13.2 mM) 0.0122 µM; under setting [1], 0.0175 µM; under setting [2], 0.0162 µM.
